Where a chain is given by its changes, count along the chain named. Numbers in names are those of the source.
B1: h15H6.v2 LC-N94E LC-P95 Fab (Fab, V domains shown)
VH: EVQLVQSGAEVKKPGASVKVSCKASGYTFTDSEMHWVRQAPGQGLEWIGGVDPETDGAAYNQKFKGRATITRDTSTSTAYLELSSLRSEDTAVYYCTRGYDYDYALDYWGQGTLVTVSS
VL: DIQMTQSPSSLSASVGDRVTITCRASSSVNFIHWYQQKPGKAPKPLISATSNLASGVPSRFSGSGSGTDFTLTISSLQPEDFATYYCQQWSSEPWTFGQGTKVEIK
notes: Produced as Fab; also called EP
B2: h15H6.v2 LC-N94A LC-P95 Fab (Fab, V domains shown)
VH: B1 VH
VL: B1 VL with E93A
notes: Produced as Fab; also called AP
B3: AG (Fab, V domains shown)
VH: B1 VH with D56A
VL: B1 VL with E93N
notes: single member of the group m42; also called h15H6.v2 HC-D55A HC-G56 Fab
B4: h15H6.v2 HC-D55E HC-G56 Fab (Fab, V domains shown)
VH: B1 VH with D56E
VL: B1 VL with E93N
notes: Produced as Fab; also called EG
B5: DA (Fab, V domains shown)
VH: B1 VH with G57A
VL: B1 VL with E93N
notes: single member of the group m42; also called h15H6.v2 HC-D55 HC-G56A Fab
B6: SG (Fab, V domains shown)
VH: B1 VH with D56S
VL: B1 VL with E93N
notes: single member of the group m42; also called h15H6.v2 HC-D55S HC-G56 Fab
B7: combination mutant LC3.HC3 Fab (Fab, V domains shown)
VH: B1 VH with T28K
VL: B1 VL with N30E, E93N
notes: Fab
B8: combination mutant LC7.HC5 Fab (Fab, V domains shown)
VH: B1 VH with M34L
VL: B1 VL with S91Y, E93N
notes: Fab
B9: combination mutant LC3.HC1 Fab (Fab, V domains shown)
VH: B1 VH with T30K
VL: B1 VL with N30E, E93N
notes: Fab
B10: combination mutant LC4.HC3 Fab (Fab, V domains shown)
VH: B1 VH with T28K
VL: B1 VL with N52H, E93N
notes: Fab
B11: combination mutant LC5.HC1 Fab (Fab, V domains shown)
VH: B1 VH with T30K
VL: B1 VL with N52E, E93N
notes: Fab
B12: combination mutant LC4.HC5 Fab (Fab, V domains shown)
VH: B1 VH with M34L
VL: B1 VL with N52H, E93N
notes: Fab
B13: combination mutant LC3.HC5 Fab (Fab, V domains shown)
VH: B1 VH with M34L
VL: B1 VL with N30E, E93N
notes: Fab
B14: combination mutant LC7.HC3 Fab (Fab, V domains shown)
VH: B1 VH with T28K
VL: B1 VL with S91Y, E93N
notes: Fab
B15: combination mutant LC5.HC2 Fab (Fab, V domains shown)
VH: B1 VH with T30R
VL: B1 VL with N52E, E93N
notes: Fab
B16: combination mutant LC7.HC1 Fab (Fab, V domains shown)
VH: B1 VH with T30K
VL: B1 VL with S91Y, E93N
notes: Fab
B17: combination mutant LC4.HC2 Fab (Fab, V domains shown)
VH: B1 VH with T30R
VL: B1 VL with N52H, E93N
notes: Fab
B18: combination mutant LC4.HC1 Fab (Fab, V domains shown)
VH: B1 VH with T30K
VL: B1 VL with N52H, E93N
notes: Fab
B19: combination mutant LC5.HC3 Fab (Fab, V domains shown)
VH: B1 VH with T28K
VL: B1 VL with N52E, E93N
notes: Fab
B20: combination mutant LC5.HC5 Fab (Fab, V domains shown)
VH: B1 VH with M34L
VL: B1 VL with N52E, E93N
notes: Fab
B21: combination mutant LC7.HC2 Fab (Fab, V domains shown)
VH: B1 VH with T30R
VL: B1 VL with S91Y, E93N
notes: Fab
B22: h15H6.v2 variant LC7 (LC-S92Y) Fab (Fab, V domains shown)
VH: B1 VH
VL: B1 VL with S91Y, E93N
notes: Fab-Flag tag fusion from 293T cells
B23: h15H6.v2 variant LC3 (LC-N31E) Fab (Fab, V domains shown)
VH: B1 VH
VL: B1 VL with N30E, E93N
notes: as for B22
B24: APEG.LC7.HC2 (Fab, V domains shown)
VH: B1 VH with T30R, D56E
VL: B1 VL with S91Y, E93A
B25: APEG.LC3.HC1 (Fab, V domains shown)
VH: B1 VH with T30K, D56E
VL: B1 VL with N30E, E93A
notes: single member of the group m82
B26: APEG.LC347.HC13 (Fab, V domains shown)
VH: B1 VH with T28K, T30K, D56E
VL: B1 VL with N30E, N52H, S91Y, E93A
notes: as for B25
B27: APEG.LC7.HC1 (Fab, V domains shown)
VH: B1 VH with T30K, D56E
VL: B1 VL with S91Y, E93A
B28: APEG.LC37.HC23 (Fab, V domains shown)
VH: B1 VH with T28K, T30R, D56E
VL: B1 VL with N30E, S91Y, E93A
notes: as for B25
B29: APEG.LC7.HC3 (Fab, V domains shown)
VH: B1 VH with T28K, D56E
VL: B1 VL with S91Y, E93A
B30: APEG.LC347.HC23 (Fab, V domains shown)
VH: B1 VH with T28K, T30R, D56E
VL: B1 VL with N30E, N52H, S91Y, E93A
notes: as for B25
B31: APEG.LC3.HC2 (Fab, V domains shown)
VH: B1 VH with T30R, D56E
VL: B1 VL with N30E, E93A
B32: APEG.LC37.HC13 (Fab, V domains shown)
VH: B1 VH with T28K, T30K, D56E
VL: B1 VL with N30E, S91Y, E93A
notes: as for B25

Molecular target: T1, His-tagged human HtrA1 protease domain (human, UniProt Q92743 161-367)
T1 construct: His-tagged protease domain; also called huHtrA1-PD-His; huHtrA1-PD
T1 sequence (Q92743 other isoform, or with tags, fused parts or gaps limits assumed): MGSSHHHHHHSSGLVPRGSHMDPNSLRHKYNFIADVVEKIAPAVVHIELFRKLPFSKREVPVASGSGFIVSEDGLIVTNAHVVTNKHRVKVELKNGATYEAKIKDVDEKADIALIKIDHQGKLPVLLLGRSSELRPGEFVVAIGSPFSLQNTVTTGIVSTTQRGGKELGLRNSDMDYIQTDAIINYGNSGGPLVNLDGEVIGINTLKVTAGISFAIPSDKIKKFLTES
Experiment: BIACORE SPR, single-cycle kinetics; Fab analyte over captured human HtrA1

In order of rising Kd:
1. B2  0.31 nM
2. B1  0.33 nM

In order of rising koff:
1. B2  0.00014 s⁻¹
2. B1  0.00017 s⁻¹

In order of falling kon:
1. B1  520000 M⁻¹ s⁻¹
2. B2  450000 M⁻¹ s⁻¹

Molecular target: T1, His-tagged human HtrA1 protease domain
Experiment: as above
Remark: another data set of the same source

In order of falling Kd:
1. B5  0.84 nM
2. B6  0.78 nM
3. B3  0.76 nM
4. B4  0.55 nM

In order of falling koff:
1. B3  0.00035 s⁻¹
2. B6  0.00032 s⁻¹
3. B5  0.00027 s⁻¹
4. B4  0.00021 s⁻¹

In order of falling kon:
1. B3  460000 M⁻¹ s⁻¹
2. B6  410000 M⁻¹ s⁻¹
3. B4  380000 M⁻¹ s⁻¹
4. B5  320000 M⁻¹ s⁻¹

Molecular target: T1, His-tagged human HtrA1 protease domain
Experiment: SPR (BIACORE T200), huHtrA1-PD-His captured by anti-His, Fab injected
Protocol: These combination mutants included both a variant light chain and a variant heavy chain. BIACORE™ kinetic analysis was performed (as described below in Section C) using the combination mutants.
(§1) To determine the binding affinity of selected Fab variants for HtrA1, SPR measurement with a BIACORE™ T200 instrument was performed. Briefly, a series S sensor chip CM5 was activated with 1-EDC and NHS reagents according to the supplier's instructions, and anti-His antibody was coupled to achieve 200-300 response units (RU), then following by blocking un-reacted groups with 1 M ethanolamine. For kinetics measurements, approximately 5 nM of huHtrA1-PD-His was first injected at 10 μl/min flow rate to capture approximately 100 RU at 2 different flow cells (FC), except for FC1 (which served as a reference). Next, 5-fold serial dilutions of Fab in HBS-P buffer (0.01M HEPES pH 7.4, 0.15M NaCl, 0.005% surfactant P20) from low (0.8 nM) to high (50 nM) were injected (flow rate: 30 μl/min). The binding responses on HtrA1 were corrected by subtracting of RU from a blank flow cell. The sensorgram was recorded and subject to reference and buffer subtraction before evaluating by BIACORE® T200 Evaluation Software (version 2.0). Association rates (kₒₙ) and dissociation rates (koff) were calculated using a simple one-to-one Langmuir binding model. The equilibrium dissociation constant (KD) was calculated as the ratio of koff/kₒₙ.

In order of rising Kd:
1. B7  0.0616 nM
2. B9  0.0889 nM
3. B21  0.0955 nM
4. B13  0.176 nM
5. B14  0.335 nM
6. B15  0.719 nM
7. B8  0.745 nM
8. B16  0.772 nM
9. B18  0.852 nM
10. B20  0.877 nM
11. B23  0.905 nM
12. B19  1.08 nM
13. B11  1.1 nM
14. B22  1.37 nM
15. B12  1.4 nM
16. B10  2.18 nM
17. B17  7.98 nM

In order of rising koff:
1. B7  4.93e-05 s⁻¹
2. B9  7.95e-05 s⁻¹
3. B13  0.000102 s⁻¹
4. B23  0.000115 s⁻¹
5. B22  0.000188 s⁻¹
6. B21  0.000189 s⁻¹
7. B15  0.000211 s⁻¹
8. B17  0.000222 s⁻¹
9. B18  0.000228 s⁻¹
10. B11  0.00023 s⁻¹
11. B14  0.000237 s⁻¹
12. B10  0.00024 s⁻¹
13. B19  0.000251 s⁻¹
14. B16  0.000267 s⁻¹
15. B20  0.000296 s⁻¹
16. B12  0.000297 s⁻¹
17. B8  0.000303 s⁻¹

In order of falling kon:
1. B21  1.97e+06 M⁻¹ s⁻¹
2. B9  885000 M⁻¹ s⁻¹
3. B7  801000 M⁻¹ s⁻¹
4. B14  709000 M⁻¹ s⁻¹
5. B13  577000 M⁻¹ s⁻¹
6. B8  406000 M⁻¹ s⁻¹
7. B16  347000 M⁻¹ s⁻¹
8. B20  337000 M⁻¹ s⁻¹
9. B15  294000 M⁻¹ s⁻¹
10. B18  268000 M⁻¹ s⁻¹
11. B19  233000 M⁻¹ s⁻¹
12. B12  212000 M⁻¹ s⁻¹
13. B11  208000 M⁻¹ s⁻¹
14. B22  137000 M⁻¹ s⁻¹
15. B23  127000 M⁻¹ s⁻¹
16. B10  110000 M⁻¹ s⁻¹
17. B17  27800 M⁻¹ s⁻¹

Molecular target: T1, His-tagged human HtrA1 protease domain
Experiment: BIACORE T200 SPR; Fab analyte over huHtrA1-PD-His captured by anti-His antibody
Protocol: as §1

In order of rising Kd:
1. B9  0.0898 nM
2. B32  0.095 nM
3. B25  0.106 nM
4. B31  0.117 nM
5. B26  0.131 nM
6. B27  0.137 nM
7. B28  0.146 nM
8. B30  0.163 nM
9. B24  0.309 nM
10. B29  0.332 nM

In order of falling koff:
1. B29  7.93e-05 s⁻¹
2. B24  6.6e-05 s⁻¹
3. B30  6.47e-05 s⁻¹
4. B28  6.41e-05 s⁻¹
5. B26  4.88e-05 s⁻¹
6. B25  4.55e-05 s⁻¹
7. B32  4.09e-05 s⁻¹
8. B31  4.08e-05 s⁻¹
9. B27  2.75e-05 s⁻¹

In order of falling kon:
1. B28  438000 M⁻¹ s⁻¹
2. B32  431000 M⁻¹ s⁻¹
3. B25  428000 M⁻¹ s⁻¹
4. B30  397000 M⁻¹ s⁻¹
5. B26  371000 M⁻¹ s⁻¹
6. B31  350000 M⁻¹ s⁻¹
7. B29  239000 M⁻¹ s⁻¹
8. B24  213000 M⁻¹ s⁻¹
9. B27  200000 M⁻¹ s⁻¹

Molecular target: T1, His-tagged human HtrA1 protease domain
Experiment: SPR (BIACORE T200), huHtrA1-PD-His captured by anti-His, Fab injected
Remark: another data set of the same source
Protocol: as §1

In order of rising Kd:
1. B22  0.335 nM
2. B23  0.48 nM

In order of falling koff:
1. B22  0.000193 s⁻¹
2. B23  0.00013 s⁻¹

In order of falling kon:
1. B22  578000 M⁻¹ s⁻¹
2. B23  270000 M⁻¹ s⁻¹

— US20170145113A1 (Genentech, published 2017)
